The record followed here is publication PMC9117880.

What all share (test): MST
For assay [1], the target named is SRS-MTBD (22/19) D3402A mutant (not stated | mouse).
The target is the same in assay [2]. The source holds these as a separate data set.
Assay [3] shares this target. This is another data set of the same source.
For assay [4] the target is unchanged. This is another data set of the same source.

Values joined by “and” are separate entries in the source; they are usually repeats but may differ in a detail not shown here. Identical values can stand only once. Like-named read-outs stand apart in the source and are kept apart here.

Take “taxol-stabilized, unlabeled microtubules (porcine brain tubulin) (from UniProt P02550 1-451) (complex)”: the Kd (in general, the constant that tells how readily two partners part at equilibrium) was 0.46 µM in assay [1]; 5.49 µM in assay [2]; 13 µM and 14.7 µM in assay [3]; 0.53 µM in assay [4].
